How the values were obtained:
[1] = Turbidity (OD at 490 nm) / aggregation in aqueous buffer (PBS); format: physicochemical; details: turbidity (OD at 490 nm) >0.05 indicates aggregating
From the text: Soluble: Capable of becoming molecularly or ionically dispersed in a solvent to form a homogeneous solution. […] Solubility can be determined by visual inspection, by turbidity measurements or by dynamic light scattering.
It was unknown a priori what composition and magnitude of charge would be needed to fully solubilize polymer arms with high densities of amphiphilic or hydrophobic drug (D) molecules. Therefore, we attached high densities (˜10 mol %) of the small molecule aromatic heterocycle, 2BXy, which is a TLR-7/8a, to ˜40 kDa HPMA-based polymer arms (A) through a reactive monomer (E), wherein the polymer arm (A) comprised HPMA monomers as the majority hydrophilic monomer (B) and optionally included either 10 or 20 mol % charged monomers (C) comprising either negatively or positively charged functional groups.

[2] = Hydrodynamic radius (Rh), dynamic light scattering; format: physicochemical; details: Table 5

Row | Substance | Turbidity, pH 7.4 ([1]; Table 5, di-block architecture) | Size, Rh (nm) [2] | Turbidity, pH 7.4 ([1]; Table 4, charged monomers, ~10 mol % TLR-7/8a)
1 | N3-poly(HPMA-co-Ma-b-Ala-2BXy)-Pg [Compound 46] | Aggregate | >1000 nm | 
2 | N3-poly(HPMA-co-Ma-b-Ala-2BXy-co-Ma-b-Ala-COOH)-Pg [Compound 48] |  |  | 0.043
3 | PAMAM-g-poly[(HPMA-co-Ma-b-Ala-2BXy)-b-HPMA]-Pg [Compound 78] | 0.041 | 12.9 nm | 
4 | N3-poly[(HPMA-co-Ma-b-Ala-2BXy)-b-HPMA]-Pg [Compound 62] | 0.039 | 6.6 nm | 

Source: US20230026627A1, “Compositions and Methods of Manufacturing Star Polymers for Ligand Display and/or Drug Delivery” (Vaccitech North America, Inc., priority 2019, published 2023)
